T1: FcgRIIa R (human, UniProt P12318 34-217)
T1 construct: extracellular domain; also called FcγRIIa R; FcγRIIa type R; not shown: His tag attached to the C terminus
T1 sequence (looked up): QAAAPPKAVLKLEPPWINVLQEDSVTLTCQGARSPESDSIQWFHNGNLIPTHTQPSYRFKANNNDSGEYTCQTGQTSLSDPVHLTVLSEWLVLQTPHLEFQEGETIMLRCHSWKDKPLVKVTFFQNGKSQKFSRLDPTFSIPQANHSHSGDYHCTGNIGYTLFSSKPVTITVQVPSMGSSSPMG

T2: FcgRIIa H (human, UniProt P12318 34-217)
T2 construct: extracellular domain; also called FcγRIIa H; FcγRIIa type H; not shown: His tag attached to the C terminus
T2 sequence (looked up): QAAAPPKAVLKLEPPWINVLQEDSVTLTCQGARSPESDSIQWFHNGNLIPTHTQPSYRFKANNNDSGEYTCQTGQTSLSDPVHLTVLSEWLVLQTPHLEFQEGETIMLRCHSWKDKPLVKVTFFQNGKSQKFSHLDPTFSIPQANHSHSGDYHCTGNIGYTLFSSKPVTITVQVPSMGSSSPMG

T3: FcgRIIb (human, UniProt P31994 43-217)
T3 construct: extracellular domain; also called FcγRIIb; not shown: His tag attached to the C terminus
T3 sequence (looked up): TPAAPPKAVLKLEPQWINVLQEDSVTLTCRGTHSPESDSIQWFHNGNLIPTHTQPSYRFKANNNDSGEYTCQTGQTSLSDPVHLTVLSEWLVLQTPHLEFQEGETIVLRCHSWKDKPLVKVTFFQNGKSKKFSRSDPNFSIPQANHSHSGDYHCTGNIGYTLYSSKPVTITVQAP


Legend:
Test in all cases: SPR (Biacore); KD of H240-Kn061/H240-Hl071/L73-k0 divided by KD of the variant
FcgRIIa R = biological target: T1, FcgRIIa R
Procedure: (§1) The antibodies were assessed for the binding to each FcgR. […] The resultant value was defined as relative KD, and used as an assessment indicator.
(§2) Analysis of interaction between obj ective antibody and the FcγR was carried out using Biacore T100 (GE Healthcare), Biacore T200, Biacore A100, and Biacore 4000. HBS-EP+ (GE Healthcare) was used as the running buffer, and the measurement temperature was set to 25° C. Chips produced by immobilizing the antigen peptide by the amine coupling method to a Series S sensor Chip CM5 (GE Healthcare), chips produced by allowing preliminarily biotinylated antigen peptides to interact with and immobilize onto a Series S Sensor Chip SA (certified) (GE Healthcare), chips produced by immobilizing Protein L (ACTIGEN, BioVision) to Series S Sencor Chip CM5 (GE Healthcare), or chips produced by immobilizing Protein A/G (Thermo Scientific) to Series S Sencor Chip CM5 (GE Healthcare) were used. Antibodies of interest were captured onto these chips, and allowed to interact to each FcγR diluted with running buffer.

FcgRIIIa F = biological target: T4, FcgRIIIa F (human, UniProt P08637 17-208)
T4 construct: extracellular domain; also called FcγRIIIa F; 3aF; not shown: His tag attached to the C terminus
Procedure: as §1, §2

FcgRIIa H = biological target: T2, FcgRIIa H
Procedure: as §1, §2

FcgRIIb = biological target: T3, FcgRIIb
Procedure: as §1, §2

FcgRIIIa V = biological target: T5, FcgRIIIa V (human, UniProt P08637 17-208)
T5 construct: extracellular domain; also called FcγRIIIa V; not shown: His tag attached to the C terminus
Procedure: as §1, §2

T4 sequence (P08637 17-208): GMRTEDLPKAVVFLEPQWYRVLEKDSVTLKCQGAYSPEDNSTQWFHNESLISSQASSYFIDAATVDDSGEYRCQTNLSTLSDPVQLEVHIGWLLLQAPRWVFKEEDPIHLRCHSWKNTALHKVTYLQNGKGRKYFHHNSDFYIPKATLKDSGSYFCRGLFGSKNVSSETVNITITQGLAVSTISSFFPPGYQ
T5 sequence (P08637 17-208 F176V limits assumed): as the sequence (P08637 17-208) above, with F160V counted along it

Relative KD (FcgRIIa R)	Relative KD (FcgRIIIa F)	Relative KD (FcgRIIa H)	Relative KD (FcgRIIb)	Relative KD (FcgRIIIa V)	Binder
1.7	1.8	1.6	1.4	2	H240-Kn061 (A231E)/H240-Hl071/L73-k0 (antibody, human IgG1, kappa) heavy 1: QDQLVQSGAEVKKPGASVKVSCKASGFNIKDTYIQWVRQAPGQGLEWMGRIDPLRKQTKYREKFEGRVTITADTSTNTAYMELSSLRSEDTAVYYCVRSGREFDYWGQGTLVTVSSASTKGPSVFPLAPSSKSTSGGTAALGCLVKDYFPEPVTVSWNSGALTSGVHTFPAVLQSSGLYSLSSVVTVPSSSLGTQTYICNVNHKPSNTKVDKKVEPKSCDKTHTCPPCPEPEYYWGPSVFLFPPKPKDTLMISRTPEVTCVVVDVSDEDPEVKFNWYVDGVEVHNAKTKPREEQYNATYRVVSVLTVLHQDWLNGKEYKCKVSNKALPAPIEKTISKAKGQPREPQVCTLPPSRDELTKNQVSLWCLVKGFYPSDIAVEWESNGQPENNYKTTPPVLDSDGSFFLYSKLTVDKSRWQQGNVFSCSVMHEALHNHYTQKSLSLSP heavy 2: QDQLVQSGAEVKKPGASVKVSCKASGFNIKDTYIQWVRQAPGQGLEWMGRIDPLRKQTKYREKFEGRVTITADTSTNTAYMELSSLRSEDTAVYYCVRSGREFDYWGQGTLVTVSSASTKGPSVFPLAPSSKSTSGGTAALGCLVKDYFPEPVTVSWNSGALTSGVHTFPAVLQSSGLYSLSSVVTVPSSSLGTQTYICNVNHKPSNTKVDKKVEPKSCDKTHTCPPCPAPELLGGPSVFLFPPKPKDTLMISRTPEVTCVVVDVSHEDPEVKFNWYVDGVEVHNAKTKPREEQYNSTYRVVSVLTVLHQDWLNGKEYKCKVSNDALPMPIEETISKAKGQPREPQVYTLPPSRCELTKNQVSLSCAVKGFYPSDIAVEWESNGQPENNYKTTPPVLDSDGSFFLVSKLTVDKSRWQQGNVFSCSVMHEALHNHYTQKSLSLSP light: DIQMTQSPSSLSASVGDRVTITCRASQDIHKYIAWYQQKPGQAPRLLIQYTSTLQPGVPSRFSGSGSGTDYTFTISSLQPEDIATYYCLQYEQLRTFGGGTKVEIKRTVAAPSVFIFPPSDEQLKSGTASVVCLLNNFYPREAKVQWKVDNALQSGNSQESVTEQDSKDSTYSLSSTLTLSKADYEKHKVYACEVTHQGLSSPVTKSFNRGEC
1.5	1.5	1.5	1.4	1.7	H240-Kn061 (A231Q)/H240-Hl071/L73-k0 (antibody, human IgG1, kappa) heavy 1: QDQLVQSGAEVKKPGASVKVSCKASGFNIKDTYIQWVRQAPGQGLEWMGRIDPLRKQTKYREKFEGRVTITADTSTNTAYMELSSLRSEDTAVYYCVRSGREFDYWGQGTLVTVSSASTKGPSVFPLAPSSKSTSGGTAALGCLVKDYFPEPVTVSWNSGALTSGVHTFPAVLQSSGLYSLSSVVTVPSSSLGTQTYICNVNHKPSNTKVDKKVEPKSCDKTHTCPPCPQPEYYWGPSVFLFPPKPKDTLMISRTPEVTCVVVDVSDEDPEVKFNWYVDGVEVHNAKTKPREEQYNATYRVVSVLTVLHQDWLNGKEYKCKVSNKALPAPIEKTISKAKGQPREPQVCTLPPSRDELTKNQVSLWCLVKGFYPSDIAVEWESNGQPENNYKTTPPVLDSDGSFFLYSKLTVDKSRWQQGNVFSCSVMHEALHNHYTQKSLSLSP heavy 2: QDQLVQSGAEVKKPGASVKVSCKASGFNIKDTYIQWVRQAPGQGLEWMGRIDPLRKQTKYREKFEGRVTITADTSTNTAYMELSSLRSEDTAVYYCVRSGREFDYWGQGTLVTVSSASTKGPSVFPLAPSSKSTSGGTAALGCLVKDYFPEPVTVSWNSGALTSGVHTFPAVLQSSGLYSLSSVVTVPSSSLGTQTYICNVNHKPSNTKVDKKVEPKSCDKTHTCPPCPAPELLGGPSVFLFPPKPKDTLMISRTPEVTCVVVDVSHEDPEVKFNWYVDGVEVHNAKTKPREEQYNSTYRVVSVLTVLHQDWLNGKEYKCKVSNDALPMPIEETISKAKGQPREPQVYTLPPSRCELTKNQVSLSCAVKGFYPSDIAVEWESNGQPENNYKTTPPVLDSDGSFFLVSKLTVDKSRWQQGNVFSCSVMHEALHNHYTQKSLSLSP light: DIQMTQSPSSLSASVGDRVTITCRASQDIHKYIAWYQQKPGQAPRLLIQYTSTLQPGVPSRFSGSGSGTDYTFTISSLQPEDIATYYCLQYEQLRTFGGGTKVEIKRTVAAPSVFIFPPSDEQLKSGTASVVCLLNNFYPREAKVQWKVDNALQSGNSQESVTEQDSKDSTYSLSSTLTLSKADYEKHKVYACEVTHQGLSSPVTKSFNRGEC

From US20180155451A1 (published 2018)
